Reference: paper PMC12753876 (2025)

B1: CRY1^(PHR WT) in pGADT7 (AD) [Arabidopsis thaliana] / HsFA3^WT in pGBKT7 (BD) [Arabidopsis thaliana] (parent complex)
chain 1: MSGSVSGCGSGGCSIVWFRRDLRVEDNPALAAAVRAGPVIALFVWAPEEEGHYHPGRVSRWWLKNSLAQLDSSLRSLGTCLITKRSTDSVASLLDVVKSTGASQIFFNHLYDPLSLVRDHRAKDVLTAQGIAVRSFNADLLYEPWEVTDELGRPFSMFAAFWERCLSMPYDPESPLLPPKKIISGDVSKCVADPLVFEDDSEKGSNALLARAWSPGWSNGDKALTTFINGPLLEYSKNRRKADSATTSFLSPHLHFGEVSVRKVFHLVRIKQVAWANEGNEAGEESVNLFLKSIGLREYSRYISFNHPYSHERPLLGHLKFFPWAVDENYFKAWRQGRTGYPLVDAGMRELWATGWLHDRIRVVVSSFFVKVLQLPWRWGMKYFWDTLLDADLESDALGWQYITGTLPDSREFDRIDNPQFEGYKFDPNGEYVRRWLPELSRLPTDWIHHPWNAPESVLQAAGIELGSNYPLPIVGLDEAKARLHEALSQMWQLEAASRAAIENGSEE
chain 2: not shown

Variants of: B1
Test: yeast two-hybrid (beta-galactosidase, Miller units); n=3; parent: 280; read off a plot

| Variant | response |
| --- | --- |
| chain 1 R211A, chain 1 R435A | ~150 Miller Units |

Variants of: B1
Test: as above
Remark: another data set of the same source

| Variant | response |
| --- | --- |
| chain 1 K332A, chain 1 R335A | ~300 Miller Units |

Variants of: B1
Test: as above
Remark: another data set of the same source

| Variant | response |
| --- | --- |
| chain 1 K332E, chain 1 R335E | ~280 Miller Units |
| chain 1 K332E | ~210 Miller Units |
| chain 1 R335E | ~210 Miller Units |
